As a reminder, the Kd is the free concentration of one partner at which half of the binding sites on the other are occupied at equilibrium, for simple one-to-one binding.

The results in this text go back to article PMC3120833, “The p53 Tumor Suppressor Is Stabilized by Inhibitor of Growth 1 (ING1) by Blocking Polyubiquitination” (PLoS ONE, 2011).

The assay deals with T1, FLAG-ubiquitin, recombinant (UniProt P0CG47 1-76).
T1 construct: ubiquitin, the cut product of a ubiquitin precursor; source: bought: Boston Biochem
Nature of the assay: SPR; Biacore 3000, 25°C; FLAG-ubiquitin immobilised on CM-5 chip by amine cross-linking; increasing amounts of GST-ING1 injected; blank reference subtracted; three experiments; steady-state affinity and kinetic data. Particulars: both partners purified. In general terms: SPR reads the build-up and loss of mass on a sensor chip optically.

B1: GST-ING1b, full length, recombinant (natural protein, human, UniProt Q9UK53-2 1-279, looked up)
chain: MLSPANGEQLHLVNYVEDYLDSIESLPFDLQRNVSLMREIDAKYQEILKELDECYERFSRETDGAQKRRMLHCVQRALIRSQELGDEKIQIVSQMVELVENRTRQVDSHVELFEAQQELGDTAGNSGKAGADRPKGEAAAQADKPNSKRSRRQRNNENRENASSNHDHDDGASGTPKEKKAKTSKKKKRSKAKAEREASPADLPIDPNEPTYCLCNQVSYGEMIGCDNDECPIEWFHFSCVGLNHKPKGKWYCPKCRGENEKTMDKALEKSKKERAYNR
notes: ING1 isoform p33ING1b, full length
As to B1, the Kd was approximately 0.1 µM.
